Measurements as given in US9175077B2, “Nucleic acids encoding biologically active polypeptides derived from a novel early stage pregnancy factor designated maternin (MA)” (NOBEL BIOSCIENCES LLC, priority 1999, dated 2015).
Read-outs that look alike come from different tables or passages of the source.

Tests used:
[1] = Summary of active and inactive peptides / overall biological activities
human tumor cells = format: cell-based; settings: controls at equimolar or 5 to 10× greater concentrations
Description: The anti-tumor activities of MA were assessed in several in vitro and in vivo systems using published methods.^166 In vitro studies were with a wide variety of human tumor cell lines as well as short-term cultures of cells from biopsy samples obtained from tumors. The assays included effects of MA on colony formation, cell number and viability (trypan blue), and apoptosis. Four measures of microscopy were used. In vivo studies included the effects of MA on tumors induced in immunodeficient mice by xenotransplanted various human neoplastic cells, spontaneous neoplasms of immuno-competent mice and rats, and a few standard tumors in immuno-competent mice. Representative examples are presented.
Cells (5×10^5/ml) were seeded in modified Eagle's medium supplemented with 10% FCS, 10% conditioned medium form PHA stimulated human lymphocytes, 2 mM glutamine in 0.8% V/V methylcellulose with or without various treatments in a final volume of 1.0 ml. Then 0.1 ml aliquots were seeded in 96 well flat bottom microtest plates and incubated at 37° C. in 5% CO2 in air for 7 days. Aggregates containing 50 cells or more were scored as colonies.
5×10^5 cells were seeded in triplicate on 24 gelatin coated wells in conditions as described for Panel A and treated with the indicated test materials. After 3 days the cells were dislodged from their monolayers by gentle pipetting with cell dissociation buffer (Life Technologies), counted after trypan blue staining and aliquots examined for Annexin V staining by indirect IFA […].
Studies of the anti-tumor cell effects of MA were extended to other carcinomas, melanoma, some hematopoietic tumors, and carcinomas of the colon, prostate, breast, lung, brain, pancreas, and kidney-using cell lines from these tumors. […] Many more types of tumor cells were studied utilizing other assays (see below).

[2] = test system: human carcinoma and sarcoma cells (PC3, KS Y-1); assay: Xenotransplanted human tumors in immunodeficient mice; format: in vivo; settings: controls at equivalent and higher molar concentrations
Description: In the first set of experiments, MA was tested against tumors formed by xenotransplantation of various human carcinoma and sarcoma cells in immunodeficient mice. […] […] Three different synthetic forms of MA were used: full length (MAS3) and the previously described MAS1 and MAS2 (Panel C).

HIV-1 = settings: controls at similar, equimolar or higher concentrations
Description: Virus (MOI of 0.001) was added to 10^6 cells in RPMI-1640 with 10% FCS. One hour later the various polypeptides were added once. The cells cultured for 3 days with 5 ug PHA and 20 i.m. of II-2/ml at 37°, after which virus was estimated by determining p24 (HIV-1) or p27 (SIV) (Organon-Teknika).
The effect of native and synthetic MA on HIV-1 infection in vitro was evaluated using PHA and II-2 stimulated primary peripheral blood cells (PBMC), CD4+ T-cells enriched fractions from PBMC, and CD14+ macrophage enriched fractions. Infection was with HIV-1 IIIB (PBMC and CD4+ T-cells), HIV-1 Ba-L (macrophages), and two primary HIV-1 isolates not passaged in any cell line (PBMC).

HIV-1 gene expression = assay: HIV-1 transgenic mice, pups feeding from treated mothers; format: in vivo; settings: mouse, in vivo
Description: The transgenic mice contain 5.1 kb of the HIV-1 proviral genome, lacking gag and pol genes and 2.3 kb of vector.^172 The newly developed transgenic rat contains the same HIV-1 sequences and vector.
Twenty-four hours after birth the mothers were either inoculated subcutaneously daily for 10 days or received an implanted osmotic pump delivering 30-150 pmoles of either native or synthetic MA or pMA. Various control polypeptides were used at equimolar or vast molar excess. The newborn pups were then allowed to feed from the foster mother breast milk over the entire period. Since the animals are at risk from needle inoculation, breastfeeding was the chosen route for MA administration.
In these experiments total RNA was extracted from samples of skin RNA206 10 days after birth of MA treated and untreated mice. One ug of RNA was reverse transcribed into cDNA using random hexamer primer and […] reverse transcriptase (Life Technologies, Inc.) in a final vol. Of 30 ul. Three ul of each reaction was used for PCR amplification of the HIV-1 gene sequences (env, tat, nef, and rev) as described […], and glyceraldehyde 3-phosphate dehydrogenase (GAPDH) was amplified from each sample for normalization. After 25 cycles, 10% of the products were resolved by electrophoresis on 2% agarose gels, transferred to nitrocellulose membranes by Southern blotting, and hybridized to fluorescein isthiocyanate-labeled oligonucleotide probes complementary to internal sequences of the amplicons […]. Bound probes were detected by chemiluminescence (Amersham) and relative mRNA levels determined by densitrometry after normalization with GAPDH mRNA levels.

[3] = test system: hematopoietic progenitors (CFU-GEMM, BFU-e, CFU-GM, T-CFC); assay: Hematopoietic colony formation assays; format: cell-based, human
Description: Hematopoietic colony formation assays with bone marrow or cord blood of normal human volunteers and bone marrow of monkeys, rats, and mice were utilized. The assays are conventional measurements of the number of progenitors for erythrocytes, granulocytes, macrophages, platelets, and T-cells. The culture conditions included growth factors that would give near optimum growth for the particular lineage. These factors included II-3, PHA-lymphocyte conditioned medium, erythropoietin (EPO), II-6, and GM-CSF. The number of colonies developing in methylcellulose reflects the number of progenitor cells, and the percent increase is a measure of the effect of different polypeptides to increase colony number above the maximum obtained with the indicated known growth factors.
The latter is a less conventional assay, and details on the methods involved are described elsewhere.^178

[4] = Lethal dose taxol in Sprague-Dawley rats; format: in vivo; settings: even at high doses
Description: Sprague-Dawley rats were given taxol in large lethal doses, 4.5 mg in one I.P. inoculation. […] Bone marrow suppression can also be a side effect of the clinical use of taxol.^179 As in the radiation experiments, either MA, pMA, MAS1, or various polypeptide controls were given subcutaneously only in two doses 24 and 48 hrs before taxol treatment or were given 3×/week for 4 weeks. […]

hCG receptor = molecular target: T1, hCG receptor (Homo sapiens, UniProt P22888); settings: cited from earlier work
T1 construct: host or cells: unspecified cells

HIV = settings: higher doses increased viral production; cited from earlier work

T1 sequence (P22888 27-699): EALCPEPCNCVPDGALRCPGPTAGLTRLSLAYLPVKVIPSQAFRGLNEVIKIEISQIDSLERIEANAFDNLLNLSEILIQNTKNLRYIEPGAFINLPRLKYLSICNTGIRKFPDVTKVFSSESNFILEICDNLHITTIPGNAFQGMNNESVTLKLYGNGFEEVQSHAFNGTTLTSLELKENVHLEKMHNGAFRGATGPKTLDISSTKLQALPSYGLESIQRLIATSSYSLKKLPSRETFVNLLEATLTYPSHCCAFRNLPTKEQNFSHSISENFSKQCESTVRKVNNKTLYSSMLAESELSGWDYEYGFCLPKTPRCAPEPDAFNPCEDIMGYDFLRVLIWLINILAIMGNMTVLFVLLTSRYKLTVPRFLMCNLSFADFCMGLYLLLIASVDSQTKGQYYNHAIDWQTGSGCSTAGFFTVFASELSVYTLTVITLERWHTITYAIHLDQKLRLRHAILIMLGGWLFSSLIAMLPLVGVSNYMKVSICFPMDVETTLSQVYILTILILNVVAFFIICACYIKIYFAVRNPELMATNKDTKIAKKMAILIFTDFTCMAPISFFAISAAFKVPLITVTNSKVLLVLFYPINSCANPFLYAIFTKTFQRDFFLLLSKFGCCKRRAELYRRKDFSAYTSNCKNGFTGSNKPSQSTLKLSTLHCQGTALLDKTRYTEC

B1: β-hCG: β-chain of human chorionic gonadotropin, AA 1-145 (SEQ ID NO: 1) (protein, listed as Homo sapiens)
chain: SKEPLRPRCRPINATLAVEKEGCPVCITVNTTICAGYCPTMTRVLQGVLPALPQVVCNYRDVRFESIRLPGCPRGVNPVVSYAVALSCQCALCRRSTTDCGGPKDHPLTCDDPRFQDSSSSKAPPPSLPSPSRLPGPSDTPILPQ
- biological activities in vitro or in vivo in the experimental systems described [1]: no activity
- inhibition of growth / induction of apoptosis of neoplastic cells (human tumor cells): no inhibition of growth or induction of apoptosis
- effect on xenotransplanted tumor (qualitative) [2]: no effect
- inhibition of HIV replication (qualitative) (HIV-1): No inhibition
- inhibition of HIV replication (qualitative) (HIV-1; listed as rβ-hCG): no effect
- HIV-1 viral expression in tissues (HIV-1 gene expression): high expression
- mice dead by day 10 (HIV-1 gene expression): 10 of 10
- hematopoietic effects in vivo and in vitro [3]: None
- effect on colony number (qualitative) ([3]; equimolar or higher concentrations): no significant effect above background
- effect on survival (qualitative) [4]: no effect
- binding to the hCG receptor (hCG receptor): neither β-hCG or any of its degradation products significantly bind
- doses reducing HIV production in monocytes (HIV): ≤ 10 µg/mL
